9 molecules from patent US20160185837A1 (Medimmune Limited, priority 2013, published 2016) can be followed below.

Numbering of substitutions follows the chain as printed. Where “and” joins values, the source holds several entries; their conditions need not be identical. Identical values can stand only once.

First the molecules themselves.
T1: mouse GIP receptor (mGIPr) (Mus musculus, UniProt Q0P543)
T1 construct: expressed in transfected cells; host or cells: HEK293s or CHO cells
T1 sequence (Q0P543 19-460): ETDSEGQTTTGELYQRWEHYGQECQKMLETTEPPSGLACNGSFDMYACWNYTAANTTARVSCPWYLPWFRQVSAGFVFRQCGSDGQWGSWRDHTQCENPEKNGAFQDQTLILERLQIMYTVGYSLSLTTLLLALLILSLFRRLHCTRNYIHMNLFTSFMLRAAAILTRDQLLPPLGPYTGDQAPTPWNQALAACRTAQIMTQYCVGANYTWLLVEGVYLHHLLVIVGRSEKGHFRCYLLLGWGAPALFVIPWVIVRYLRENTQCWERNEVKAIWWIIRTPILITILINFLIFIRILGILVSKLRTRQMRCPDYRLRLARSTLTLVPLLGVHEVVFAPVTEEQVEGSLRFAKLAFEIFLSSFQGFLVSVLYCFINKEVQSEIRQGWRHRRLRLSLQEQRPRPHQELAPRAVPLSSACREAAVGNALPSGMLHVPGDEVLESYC

T2: mouse GLP-1 receptor (mGLP-1r) (Mus musculus, UniProt O35659)
T2 construct: expressed in transfected cells; host or cells: HEK293s or CHO cells
T2 sequence (O35659 22-463): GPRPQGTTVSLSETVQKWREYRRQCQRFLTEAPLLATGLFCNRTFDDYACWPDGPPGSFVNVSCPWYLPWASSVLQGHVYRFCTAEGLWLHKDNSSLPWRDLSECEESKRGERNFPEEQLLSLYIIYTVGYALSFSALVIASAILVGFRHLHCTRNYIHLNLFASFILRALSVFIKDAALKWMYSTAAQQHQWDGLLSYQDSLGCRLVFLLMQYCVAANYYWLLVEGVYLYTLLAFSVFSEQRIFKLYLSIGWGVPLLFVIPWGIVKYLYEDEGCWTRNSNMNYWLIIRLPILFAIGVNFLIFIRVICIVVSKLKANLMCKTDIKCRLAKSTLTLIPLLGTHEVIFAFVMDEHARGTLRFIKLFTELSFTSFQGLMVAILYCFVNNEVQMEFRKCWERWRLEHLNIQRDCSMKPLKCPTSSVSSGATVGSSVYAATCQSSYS

T3: rat GIP receptor (rGIPr) (Rattus norvegicus, UniProt P43219)
T3 construct: expressed in transfected cells; host or cells: HEK293s or CHO cells
T3 sequence (P43219 19-455): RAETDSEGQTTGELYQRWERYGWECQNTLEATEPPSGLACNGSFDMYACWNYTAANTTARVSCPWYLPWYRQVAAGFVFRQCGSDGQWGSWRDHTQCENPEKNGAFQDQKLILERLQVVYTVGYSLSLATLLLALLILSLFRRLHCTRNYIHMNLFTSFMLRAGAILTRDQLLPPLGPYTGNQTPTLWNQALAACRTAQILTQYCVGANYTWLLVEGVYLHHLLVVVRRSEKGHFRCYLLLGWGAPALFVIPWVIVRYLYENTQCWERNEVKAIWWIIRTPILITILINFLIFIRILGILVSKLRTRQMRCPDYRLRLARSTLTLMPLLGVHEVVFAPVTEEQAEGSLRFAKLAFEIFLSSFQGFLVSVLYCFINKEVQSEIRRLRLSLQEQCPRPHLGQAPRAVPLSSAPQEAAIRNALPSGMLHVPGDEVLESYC

T4: rat GLP-1 receptor (rGLP-1r) (Rattus norvegicus, UniProt P32301)
T4 construct: expressed in transfected cells; host or cells: HEK293s or CHO cells
T4 sequence (P32301 22-463): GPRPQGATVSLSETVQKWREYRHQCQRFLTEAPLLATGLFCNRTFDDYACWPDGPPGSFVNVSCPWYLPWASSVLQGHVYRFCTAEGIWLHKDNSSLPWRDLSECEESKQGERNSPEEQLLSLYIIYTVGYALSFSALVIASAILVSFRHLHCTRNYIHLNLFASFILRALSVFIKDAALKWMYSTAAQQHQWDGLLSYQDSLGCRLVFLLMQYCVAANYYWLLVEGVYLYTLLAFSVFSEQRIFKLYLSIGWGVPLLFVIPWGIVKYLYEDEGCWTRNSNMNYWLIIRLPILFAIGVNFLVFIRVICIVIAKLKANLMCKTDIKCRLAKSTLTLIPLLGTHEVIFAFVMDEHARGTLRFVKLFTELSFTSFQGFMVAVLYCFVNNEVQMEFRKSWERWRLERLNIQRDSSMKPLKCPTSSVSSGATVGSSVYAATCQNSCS

T5: human GIP receptor (hGIPr) (Homo sapiens, UniProt P48546)
T5 construct: expressed in transfected cells
T5 sequence (P48546 22-466): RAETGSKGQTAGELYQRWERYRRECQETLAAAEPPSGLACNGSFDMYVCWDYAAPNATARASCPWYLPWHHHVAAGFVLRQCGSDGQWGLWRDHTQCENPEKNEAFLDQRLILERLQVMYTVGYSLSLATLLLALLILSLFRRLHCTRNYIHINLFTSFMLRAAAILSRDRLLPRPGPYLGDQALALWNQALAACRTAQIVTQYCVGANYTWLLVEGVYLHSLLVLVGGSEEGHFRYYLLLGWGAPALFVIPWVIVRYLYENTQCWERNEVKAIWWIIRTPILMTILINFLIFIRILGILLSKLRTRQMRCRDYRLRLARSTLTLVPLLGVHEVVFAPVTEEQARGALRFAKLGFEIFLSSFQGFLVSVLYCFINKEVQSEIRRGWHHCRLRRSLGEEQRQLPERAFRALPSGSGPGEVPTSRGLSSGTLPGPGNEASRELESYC

B1: IP203 (protein)
chain: HGEGTFTSDVSSYLEGQAAKEFIAWLVKGGAAAGGSGSTASSGSGSATGGGGAATHTCPPCPAPEF
modifications: /note=“Description of Artificial Sequence Synthetic Peptide-linker-hinge polypeptide”
B2: IP209 (protein)
chain: B1 chain with H1Y, G2S, V10Y, L14M, G16R, A19I, K20D, V27L
modifications: /note=“Description of Artificial Sequence Synthetic Peptide-linker-hinge polypeptide”
B3: IP207 (protein)
chain: YAEGTFISDYSIAMDKIHQQDFVNWLLAQKGKKNDWKHNITQAAAGGSGSTASSGSGSATGGGGAATHTCPPCPAPELL
modifications: /note=“Description of Artificial Sequence Synthetic Peptide-linker-hinge polypeptide”
B4: IP188 (protein)
chain: YSEGTFISDYSIAMDKIHQQDFVNWLLAQKAPPGGGGGSGGGGSGGGGSGGGGSATHTCPPCPAPEF
modifications: /note=“Description of Artificial Sequence Synthetic Peptide-linker-hinge polypeptide”
B5: IP146 (protein)
chain: HGEGTFTSDVSSYLEGQAAKEFIAWLVKGAAAGGSGSTASSGSGSATGGGGAACPPCPAPEF
modifications: /note=“Description of Artificial Sequence Synthetic Peptide-linker-hinge polypeptide”
B6: IP170 (protein)
chain: B1 chain with H1Y, G2S, L14M, G16R, A19I, K20D, V27L
modifications: /note=“Description of Artificial Sequence Synthetic Peptide-linker-hinge polypeptide”
B7: IP223 (protein)
chain: B1 chain with H1Y, G2S, L14M, G16E, Q17E, A19I, K20D, V27L
modifications: /note=“Description of Artificial Sequence Synthetic Peptide-linker-hinge polypeptide”
B8: IP015 (protein)
chain: HGEGTFTSDVSSYLEGQAAKEFIAWLVKGAAAGGSGSTASSGSGSATGGGGAATHTCPPCPAPEF
modifications: /note=“Description of Artificial Sequence Synthetic Peptide-linker-hinge polypeptide”
B9: IP230 (protein)
chain: B8 chain
modifications: /note=“Description of Artificial Sequence Synthetic Peptide-linker-hinge polypeptide”

The target in the first assay is T6, human glucagon receptor (GCGr) (Homo sapiens, UniProt P47871).
T6 construct: expressed in transfected cells; host or cells: HEK293s or CHO cells
T6 sequence (P47871 26-477): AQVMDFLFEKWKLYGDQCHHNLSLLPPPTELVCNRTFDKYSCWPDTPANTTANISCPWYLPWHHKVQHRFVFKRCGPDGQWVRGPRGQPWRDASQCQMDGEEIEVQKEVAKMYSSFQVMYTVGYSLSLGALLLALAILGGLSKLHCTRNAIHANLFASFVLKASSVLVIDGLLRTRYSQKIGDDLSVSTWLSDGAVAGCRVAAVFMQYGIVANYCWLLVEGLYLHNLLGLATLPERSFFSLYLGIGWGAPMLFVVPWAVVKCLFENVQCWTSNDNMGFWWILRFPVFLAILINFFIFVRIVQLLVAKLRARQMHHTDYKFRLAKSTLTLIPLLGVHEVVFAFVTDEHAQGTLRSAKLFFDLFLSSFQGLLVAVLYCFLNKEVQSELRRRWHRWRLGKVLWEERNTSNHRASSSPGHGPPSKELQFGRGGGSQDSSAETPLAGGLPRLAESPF
Put plainly: BSA-cAMP assay, cells expressing human glucagon receptor. It counts as cell-based. Particulars: batch 1 unless a batch is given, read-out: cAMP activity hGCGr (EC50). As to the method:
(§1) One basic cAMP assays was performed, differing in the medium used for the assay, the “BSA-cAMP assay”:
(§2) BSA-based assay medium: 0.1% bovine serum albumin (BSA) in
(§3) In certain aspects, the assay can also be carried out in medium supplemented with serum albumin that corresponds to the receptor being tested, e.g., human serum albumin for testing cAMP activity at hGIPr or hGLP-1r, rat serum albumin for testing cAMP activity at rGIPr or rGLP-1r, and so on. […] All sample dilutions were made in duplicate.
(§4) A frozen cryo-vial of cells expressing the receptor of interest was thawed rapidly in a water-bath, transferred to pre-warmed assay media and spun at 240×g for 5 minutes. Cells were re-suspended in assay buffer at an optimized concentration (e.g., hGLP-1r and hGIPr cells at 0.5×10^5 cells/ml).
(§5) To this, 5 μL cell suspension was added and the plates incubated at room temperature for 30 minutes.
(§6) cAMP levels were measured using a commercially available cAMP dynamic 2 HTRF kit (Cisbio, Cat #62AM4PEJ), following the two step protocol as per manufacturer's recommendations. In brief; anti-cAMP cryptate (donor fluorophore) and cAMP-d2 (acceptor fluorophore) were made up separately by diluting each 1/20 in conjugate & lysis buffer provided in the kit. 5 μL anti-cAMP cryptate was added to all wells of the assay plate, and 5 μL cAMP-d2 added to all wells except non-specific binding (NSB) wells, to which conjugate and lysis buffer was added. […] Data was transformed to % Delta F as described in manufacturer's guidelines and then transformed to percent activation of maximal native agonist response and analysed by 4-parameter logistic fit to determine EC50 values.
(§7) We used unconstrained 4 parameter logistic fit of data, curve mid-point to determine EC50. This was tested on two occasions, not two batches.
In general terms: cAMP levels reflect the balance of adenylyl cyclase and phosphodiesterase activity.
For B1, the EC50 – broadly, the concentration that produces a half-maximal response – was above 650 nM.

For the molecule B2, the EC50 is above 6270 nM.

B3: the EC50 came to 900 nM.

Turning to B4, the EC50 is 350 nM.

In the case of B5, the EC50 turned out to be 650 nM.

In the next assay the target is T7, human GLP-1 receptor (hGLP-1r) (Homo sapiens, UniProt P43220).
T7 construct: expressed in transfected cells
T7 sequence (P43220 24-463): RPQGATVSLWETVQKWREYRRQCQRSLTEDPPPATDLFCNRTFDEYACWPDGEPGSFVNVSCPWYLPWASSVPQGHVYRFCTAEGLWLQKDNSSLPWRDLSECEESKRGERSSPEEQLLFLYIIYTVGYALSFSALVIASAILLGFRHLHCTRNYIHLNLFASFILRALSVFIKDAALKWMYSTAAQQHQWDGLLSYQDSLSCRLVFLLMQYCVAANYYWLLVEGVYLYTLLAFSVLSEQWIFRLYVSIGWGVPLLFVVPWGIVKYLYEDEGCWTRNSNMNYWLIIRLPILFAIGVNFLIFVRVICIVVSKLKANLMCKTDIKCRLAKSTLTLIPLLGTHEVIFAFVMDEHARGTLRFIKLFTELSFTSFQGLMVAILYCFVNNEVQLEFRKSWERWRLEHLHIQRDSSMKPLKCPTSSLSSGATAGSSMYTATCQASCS
Put plainly: BSA-cAMP assay, cells expressing human GLP-1 receptor. It counts as cell-based. Particulars: BSA-cAMP assay; batch 1 unless a batch is given; read-out: cAMP activity hGLP1r (EC50). As to the method: as §1, §2, §3, §4, §5, §6, §7
In the case of B6, the EC50 is 0.12 nM.

Regarding B7, the EC50 stood at 16 nM.

B1: the EC50 was determined as 0.042 nM.

Take B2: the EC50 was 0.23 nM and 0.2 nM.

On to B3, for which the EC50 was 4100 nM.

Regarding B4, the EC50 is 500 nM.

In the case of B5, the EC50 turned out to be 0.049 nM.

On to B8, for which the 50% effective concentration (EC50) is 0.041 nM and 0.023 nM and 0.038 nM.

As to B9, the EC50 was determined as 0.056 nM.

The target in the next assay is T1, mouse GIP receptor (mGIPr). The assay can be described thus: BSA-cAMP assay, cells expressing mouse GIP receptor. In kind it is cell-based. Particulars: BSA-cAMP assay; read-out: cAMP activity mGIPr (EC50). As to the method:
as §1, §2, §3, §4, §5, §6, §7
(§8) In order to be able to carry out in vivo studies in rodents, IP088 was tested for potency against the mouse receptors mGIPr and mGLP-1r as well as the rat receptors rGIPr and rGLP-1r, using cells expressing the respective receptors in the cAMP assay described above.
As to B6, the 50% effective concentration (EC50) was 34 nM.

The target of another assay is T2, mouse GLP-1 receptor (mGLP-1r). Put plainly: BSA-cAMP assay, cells expressing mouse GLP-1 receptor. It counts as cell-based. Particulars: BSA-cAMP assay; read-out: cAMP activity mGLP1r (EC50). As to the method:
as §1, §2, §3, §4, §5, §6, §7, §8
On to B6, for which the EC50 came out at 0.85 nM.

In the case of B7, the concentration giving a half-maximal response (EC50) worked out at 80 nM.

Consider B2, for which the concentration giving a half-maximal response (EC50) is 0.84 nM and 1.6 nM.

On to B8, for which the EC50 was 0.13 nM.

A further assay deals with T3, rat GIP receptor (rGIPr). Put plainly: BSA-cAMP assay, cells expressing rat GIP receptor. In kind it is cell-based. The conditions noted are these: BSA-cAMP assay; read-out: cAMP activity rGIPr (EC50). As to the method:
as §1, §2, §3, §4, §5, §6, §7, §8
Regarding B6, the EC50 was found to be 2.3 nM.

Take B7: the 50% effective concentration (EC50) worked out at 72 nM.

For a further assay, the target named is T4, rat GLP-1 receptor (rGLP-1r). Put plainly: BSA-cAMP assay, cells expressing rat GLP-1 receptor. The conditions noted are these: BSA-cAMP assay; read-out: cAMP activity rGLP1r (EC50). In kind it is cell-based. As to the method:
as §1, §2, §3, §4, §5, §6, §7, §8
B6: the half-maximal effective concentration (EC50) worked out at 0.06 nM.

For B7, the EC50 turned out to be 18 nM.

With B2, the concentration giving a half-maximal response (EC50) is 0.075 nM and 0.091 nM.

Turning to B8, the EC50 worked out at 0.014 nM.

Another assay concerns the target T5, human GIP receptor (hGIPr). The assay can be described thus: BSA-cAMP assay, cells expressing human GIP receptor. Particulars: BSA-cAMP assay; batch 1 unless a batch is given; read-out: cAMP activity hGIPr (EC50). It counts as cell-based. As to the method: For human GIPr, two different lines were used, shown as “hGIPr” and “hGIPr (C3)” in Table 11.
as §1, §2, §3, §4, §5, §6, §7
Turning to B6, the EC50 amounted to 0.079 nM.

On to B7, for which the EC50 amounted to 2.5 nM.

For B1, the concentration for a half-maximal effect (EC50) worked out at 110 nM.

For B3, the half-maximal effective concentration (EC50) is 0.0085 nM and 0.0078 nM.

Consider B4, for which the EC50 worked out at 0.0038 nM.

Regarding B5, the EC50 stood at 83 nM.

On to B8, for which the concentration giving a half-maximal response (EC50) amounted to 27 nM.

As for B9, the concentration giving a half-maximal response (EC50) is above 15000 nM.
